Test system: Escherichia coli TOP10
Test: shrunken log2 fold change of peptide-encoding DNA abundance (4.5 h post-induction vs induction); higher = less antimicrobial activity (less host growth inhibition)
Details: time post-induction: 4.5 h; library: site-saturation at positions 5, 18, 19, 20
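Note: peptides expressed intracellularly from a pBAD plasmid library in pooled LB shake-flask culture, induced with 0.3% L-arabinose, DNA abundance read by NGS, three biological replicates, DESeq2 with apeglm shrinkage.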

Sequence: RRIRMRPPRLPRPRPRPSFAPRP
- shrunken log2 fold change: 0.301

Sequence: RRIRPRPPRLPRPRPRPEQKPRP
- shrunken log2 fold change: 0.000209

Sequence: RRIRTRPPRLPRPRPRPHEGPRP
- shrunken log2 fold change: -0.00663

Sequence: RRIRQRPPRLPRPRPRPMAIPRP
- shrunken log2 fold change: -0.326

Sequence: RRIRRRPPRLPRPRPRPFWRPRP
- shrunken log2 fold change: 0.0251

Sequence: RRIRIRPPRLPRPRPRPHCDPRP
- shrunken log2 fold change: -0.0356

Sequence: RRIRYRPPRLPRPRPRPVYHPRP
- shrunken log2 fold change: -0.586

Sequence: RRIRPRPPRLPRPRPRPFEYPRP
- shrunken log2 fold change: -0.0601

Sequence: RRIRKRPPRLPRPRPRPALKPRP
- shrunken log2 fold change: 0.48

Sequence: RRIRQRPPRLPRPRPRPRSTPRP
- shrunken log2 fold change: 0.203

Sequence: RRIRNRPPRLPRPRPRPWIKPRP
- shrunken log2 fold change: -0.739

Sequence: RRIRQRPPRLPRPRPRPWCKPRP
- shrunken log2 fold change: -0.0323

Sequence: RRIRGRPPRLPRPRPRPYIEPRP
- shrunken log2 fold change: -0.114

Sequence: RRIRFRPPRLPRPRPRPGAEPRP
- shrunken log2 fold change: 0.286

Sequence: RRIRRRPPRLPRPRPRPRWFPRP
- shrunken log2 fold change: 0.524

Sequence: RRIRTRPPRLPRPRPRPACEPRP
- shrunken log2 fold change: 0.0463

Sequence: RRIRGRPPRLPRPRPRPECRPRP
- shrunken log2 fold change: 1.32

Sequence: RRIRDRPPRLPRPRPRPGPHPRP
- shrunken log2 fold change: 0.132

Sequence: RRIRCRPPRLPRPRPRPHGCPRP
- shrunken log2 fold change: -0.037

Sequence: RRIRQRPPRLPRPRPRPKHKPRP
- shrunken log2 fold change: -0.0629

Sequence: RRIRKRPPRLPRPRPRPVSHPRP
- shrunken log2 fold change: 0.0254

Sequence: RRIRSRPPRLPRPRPRPTGWPRP
- shrunken log2 fold change: 1.01

Sequence: RRIRARPPRLPRPRPRPVWIPRP
- shrunken log2 fold change: -0.0967

Sequence: RRIRFRPPRLPRPRPRPATQPRP
- shrunken log2 fold change: -0.00992

Sequence: RRIRQRPPRLPRPRPRPYTEPRP
- shrunken log2 fold change: -0.00136

Sequence: RRIRKRPPRLPRPRPRPCVGPRP
- shrunken log2 fold change: 0.334

Sequence: RRIRDRPPRLPRPRPRPLYWPRP
- shrunken log2 fold change: -0.112

Sequence: RRIRYRPPRLPRPRPRPDSMPRP
- shrunken log2 fold change: 0.00804

Sequence: RRIRDRPPRLPRPRPRPQKRPRP
- shrunken log2 fold change: -0.00561

Sequence: RRIRPRPPRLPRPRPRPNCEPRP
- shrunken log2 fold change: 0.117

Sequence: RRIRLRPPRLPRPRPRPSKHPRP
- shrunken log2 fold change: -0.642

Sequence: RRIRTRPPRLPRPRPRPQHHPRP
- shrunken log2 fold change: -0.453

Sequence: RRIRARPPRLPRPRPRPQKRPRP
- shrunken log2 fold change: 0.172

Sequence: RRIRERPPRLPRPRPRPGRSPRP
- shrunken log2 fold change: -0.032

Sequence: RRIRKRPPRLPRPRPRPNPLPRP
- shrunken log2 fold change: 0.0246

Sequence: RRIRHRPPRLPRPRPRPVQGPRP
- shrunken log2 fold change: 0.207

Sequence: RRIRPRPPRLPRPRPRPAVKPRP
- shrunken log2 fold change: 0.171

Sequence: RRIRWRPPRLPRPRPRPAGRPRP
- shrunken log2 fold change: 0.695

Sequence: RRIRWRPPRLPRPRPRPNCPPRP
- shrunken log2 fold change: -0.125

Sequence: RRIRPRPPRLPRPRPRPHMTPRP
- shrunken log2 fold change: -0.47

Sequence: RRIRPRPPRLPRPRPRPISWPRP
- shrunken log2 fold change: -0.00365

Sequence: RRIRYRPPRLPRPRPRPWPFPRP
- shrunken log2 fold change: -0.218

Sequence: RRIRMRPPRLPRPRPRPNHAPRP
- shrunken log2 fold change: -0.113

Sequence: RRIRRRPPRLPRPRPRPQAEPRP
- shrunken log2 fold change: 0.0907

Sequence: RRIRSRPPRLPRPRPRPKWCPRP
- shrunken log2 fold change: -0.132

Sequence: RRIRNRPPRLPRPRPRPVTIPRP
- shrunken log2 fold change: -0.463

Sequence: RRIRLRPPRLPRPRPRPLMEPRP
- shrunken log2 fold change: -0.392

Sequence: RRIRVRPPRLPRPRPRPSTMPRP
- shrunken log2 fold change: -0.213

Sequence: RRIRERPPRLPRPRPRPEGRPRP
- shrunken log2 fold change: 0.583

Sequence: RRIRYRPPRLPRPRPRPMDDPRP
- shrunken log2 fold change: -0.0837

Sequence: RRIRLRPPRLPRPRPRPVGEPRP
- shrunken log2 fold change: 0.12

Sequence: RRIRQRPPRLPRPRPRPFPKPRP
- shrunken log2 fold change: 0.0141

Sequence: RRIRSRPPRLPRPRPRPHIFPRP
- shrunken log2 fold change: -0.197

Sequence: RRIRNRPPRLPRPRPRPRGRPRP
- shrunken log2 fold change: 0.316

Sequence: RRIRFRPPRLPRPRPRPDAFPRP
- shrunken log2 fold change: -0.491

Sequence: RRIRDRPPRLPRPRPRPVTDPRP
- shrunken log2 fold change: 0.0222

Sequence: RRIRARPPRLPRPRPRPIPCPRP
- shrunken log2 fold change: 0.0669

Sequence: RRIRYRPPRLPRPRPRPTCPPRP
- shrunken log2 fold change: -0.434

Sequence: RRIRWRPPRLPRPRPRPGWSPRP
- shrunken log2 fold change: 0.221

Sequence: RRIRWRPPRLPRPRPRPGEPPRP
- shrunken log2 fold change: 0.271

Sequence: RRIRWRPPRLPRPRPRPIVGPRP
- shrunken log2 fold change: -0.0113

Sequence: RRIRGRPPRLPRPRPRPYCVPRP
- shrunken log2 fold change: -0.237

From the supplement of paper PMC9112550, “Optimization of the antimicrobial peptide Bac7 by deep mutational scanning” (BMC Biology, 2022)
